Reference: patent publication US20190185568A1 (FUSO PHARMACEUTICAL INDUSTRIES, published 2019)

T1: bovine FcγRII-His (soluble extracellular region with 6xHis tag) (bovine, UniProt Q28110 43-225)
T1 construct: extracellular domain; also called boFcγRII-His
T1 sequence: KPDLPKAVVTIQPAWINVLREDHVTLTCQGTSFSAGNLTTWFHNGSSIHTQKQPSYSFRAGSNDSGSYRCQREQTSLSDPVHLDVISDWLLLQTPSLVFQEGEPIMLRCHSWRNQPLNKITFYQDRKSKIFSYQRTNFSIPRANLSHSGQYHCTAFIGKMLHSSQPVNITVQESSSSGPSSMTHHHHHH

T2: bovine PD-1-His (soluble bovine PD-1 extracellular region with 6xHis tag) (bovine)
T2 chain: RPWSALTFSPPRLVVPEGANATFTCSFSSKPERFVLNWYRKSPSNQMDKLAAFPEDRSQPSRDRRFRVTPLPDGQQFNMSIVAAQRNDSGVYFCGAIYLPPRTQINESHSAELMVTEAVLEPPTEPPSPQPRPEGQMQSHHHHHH

B1: rat-bovine chimeric anti-bovine PD-1 antibody ch5D2 having wild-type bovine IgG1 (IgG1 WT) (antibody)
heavy: QVQLKETGPGLVQPTQTLSITCTVSGFSLTSYYIQWVRQTPGKGLEWMGFIRSGGSTEYNSEFKSRLSINRDTSKNQVFLKMNSLKTEDTGVYYCARTSSGYEGGFDYWGQGVMVTVSSASTTAPKVYPLSSCCGDKSSSTVTLGCLVSSYMPEPVTVTWNSGALKSGVHTFPAVLQSSGLYSLSSMVTVPGSTSGQTFTCNVAHPASSTKVDKAVDPTCKPSPCDCCPPPELPGGPSVFIFPPKPKDTLTISGTPEVTCVVVDVGHDDPEVKFSWFVDDVEVNTATTKPREEQFNSTYRVVSALRIQHQDWTGGKEFKCKVHNEGLPAPIVRTISRTKGPAREPQVYVLAPPQEELSKSTVSLTCMVTSFYPDYIAVEWQRNGQPESEDKYGTTPPQLDADSSYFLYSKLRVDRNSWQEGDTYTCVVMHEALHNHYTQKSTSKSAGK
light: DVVLTQTPVSLSVTLGDQASISCRSSQSLEYSDGYTYLEWYLQKPGQSPQLLIYGVSNRFSGVPDRFIGSGSGTDFTLKISRVEPEDLGVYYCFQATHDPDTFGAGTKLELKQPKSPPSVTLFPPSTEELNGNKATLVCLISDFYPGSVTVVWKADGSTITRNVETTRASKQSNSKYAASSYLSLTSSDWKSKGSYSCEVTHEGSTVTKTVKPSECS
notes: also called ch5D2 IgG1 WT
B2: rat-bovine chimeric anti-bovine PD-1 antibody ch5D2 (mutated bovine IgG1, IgG1 ADCC-) (antibody)
heavy: QVQLKETGPGLVQPTQTLSITCTVSGFSLTSYYIQWVRQTPGKGLEWMGFIRSGGSTEYNSEFKSRLSINRDTSKNQVFLKMNSLKTEDTGVYYCARTSSGYEGGFDYWGQGVMVTVSSASTTAPKVYPLSSCCGDKSSSTVTLGCLVSSYMPEPVTVTWNSGALKSGVHTFPAVLQSSGLYSLSSMVTVPGSTSGQTFTCNVAHPASSTKVDKAVDPTCKPSPCDCCPPPPVAGPSVFIFPPKPKDTLTISGTPEVTCVVVDVGHDDPEVKFSWFVDDVEVNTATTKPREEQFNSTYRVVSALRIQHQDWTGGKEFKCKVHNEGLPSSIVRTISRTKGPAREPQVYVLAPPQEELSKSTVSLTCMVTSFYPDYIAVEWQRNGQPESEDKYGTTPPQLDADSSYFLYSKLRVDRNSWQEGDTYTCVVMHEALHNHYTQKSTSKSAGK
light: B1 light
notes: Rat 5D2 variable regions on bovine IgG1 (modified from GenBank X62916) and bovine Ig lambda (X62917); also called ch5D2 IgG1 ADCC-
B3: rat anti-bovine PD-1 monoclonal antibody 5D2 (antibody, V domains shown)
VH: QVQLKETGPGLVQPTQTLSITCTVSGFSLTSYYIQWVRQTPGKGLEWMGFIRSGGSTEYNSEFKSRLSINRDTSKNQVFLKMNSLKTEDTGVYYCARTSSGYEGGFDYWGQGVMVTVSS
VL: DVVLTQTPVSLSVTLGDQASISCRSSQSLEYSDGYTYLEWYLQKPGQSPQLLIYGVSNRFSGVPDRFIGSGSGTDFTLKISRVEPEDLGVYYCFQATHDPDTFGAGTKLELK
notes: Rat monoclonal antibody from a hybridoma; Rat IgG2a (kappa) was used as its isotype control; also called rat anti-bovine PD-1 antibody 5D2

What was measured:
[1] = molecular target: T3, bovine FcγRI-His (soluble extracellular region with 6xHis tag) (bovine); assay: ELISA: antibody immobilized at 1.56 to 50 nM, bovine FcγRI-His added at 10 µg/ml, anti-polyhistidine detection [A]
T3 construct: extracellular domain; also called boFcγRI-His; not shown: limits not st
Experimental: (§1) Subsequently, each well was washed with […] of 0.05% Tween 20-supplemented PBS (PBS-T) five times, followed by blocking with SuperBlock (PBS) Blocking Buffer (Thermo Fisher Scientific) at 37° C. for 30 min, Each well was washed again in the same manner. Then, bovine FcγRI-His, FcγRII-His, FcγRIII-His or Fcγ2R-His was added to each well at a final concentration of 10 μg/ml and reacted at 37° C. for 1 hr. After washing, anti-polyhistidine tag mouse monoclonal antibody (Abeam) was reacted at 37° C. for 30 min. Subsequently, each well was washed, and horseradish peroxidase-labeled anti-mouse IgG goat polyclonal antibody (MP Biomedicals) was reacted at 37° C. for 30 min. Each well was washed again, and then TMB One Component Substrate (Bethyl) was added for coloring. Thereafter, the enzyme reaction was terminated with 0.18 M dilute sulfuric acid, and absorbance (450 nm) was measured with Microplate Reader MTP-900 (Corona Electric), For every plate washing operation, Auto Plate Washer BIO WASHER 50 (DS Pharma Biomedical) was used.

[2] = molecular target: T1, bovine FcγRII-His (soluble …); assay: ELISA: antibody immobilized at 1.56 to 50 nM, bovine FcγRII-His added at 10 µg/ml, anti-polyhistidine detection [B]
Experimental: as §1

[3] = molecular target: T2, bovine PD-1-His (soluble bovine PD-1 …); assay: SPR (Biacore X100), bovine PD-1-His immobilized on CM5 chip, antibody as analyte, single kinetics, n=3
Experimental: The binding avidities to bovine PD-1 of rat anti-bovine PD-1 antibody 5D2 and rat-bovine chimeric anti-bovine PD-1 antibody ch5D2 were measured by surface plasmon resonance using a bimolecular interaction analyzer (Biacore X100). Briefly, bovine PD-1-His (described above) was immobilized on a CM5 sensor chip (GE Healthcare) as a ligand. Subsequently, rat anti-bovine PD-1 antibody 5D2 or rat-bovine chimeric anti-bovine PD-1 antibody ch5D2 was reacted as an analyte, followed by single kinetics analysis. The experiment was repeated 3 times under the same conditions. Binding constant (kd value) and dissociation constant (ka value) were determined in each experiment, and binding avidity (KD value) was obtained.

Row | Binder | EC50 (read off the curve) [1] | binding result [2] | Kd [3] | koff [3] | kon [3]
1 | B1 | ~9 nM | binds | – | – | –
2 | B2 | – | no binding (tested: 50 nM) | 10.5 nM | 0.000216 s⁻¹ | 20700 M⁻¹ s⁻¹
3 | B3 | – | – | 12.2 nM | 0.000215 s⁻¹ | 18400 M⁻¹ s⁻¹
